Results on 1 protein are retold here after PMC9621051 (mAbs, 2022).

The data set deals with the molecule itself. Kind of data set: native MS.

B1: phospholipase D3 (PLD3) (enzyme)
chain: MKPKLMYQELKVPVEEPAGELPVNEIEAWKAAEKKARWVLLVLILAVVGFGALMTQLFLWEYGDLHLFGPNQRPAPCYDPCEAVLVESIPEGLEFPNATTSNPSTSQAWLGLLAGAHSSLDIASFYWTLTNNDTHTQEPSAQQGEEILQQLQALAPRGVKVRIAVSKPNGPLADLQSLLQSGAQVRMVDMQKLTHGVLHTKFWVVDQTHFYLGSANMDWRSLTQVKELGVVMYNCSCLARDLTKIFEAYWFLGQAGSSIPSTWPRPFDTRYNQETPMEICLNGTPALAYLASAPPPLCPSGRTPDLKALLSVVDSARSFIYIAVMNYLPTMEFSHPRRFWPAIDDGLRRAAYERGVKVRLLVSCWGHSEPSMRSFLLSLAALRDNHTHSDIQVKLFVVPADEAQARIPYARVNHNKYMVTERAVYIGTSNWSGSYFTETAGTSLLVTQNGHDGLRSQLEDVFLRDWNSLYSHNLDTAADSVGNACRLL
Turning to B1, the “stoichiometry N” value came out at 2.

As a reminder, the stoichiometry N is the number of molecules, sites or subunits per partner or assembly.
